Experimental data: the nanobody polyreactivity screen of Harvey et al. (2022)

Assay: yeast display, Sf9 membrane polyspecificity reagent, FACS + sequencing; frameworks hold sequencing errors
Outline: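 Nanobodies from a synthetic yeast display library (Saccharomyces cerevisiae BJ5465), induced 36–48 hours with galactose, were stained 1 hour at 4 °C with 10% biotinylated, detergent-solubilized Sf9 membrane reagent, enriched on streptavidin microbeads, then FACS-sorted. Anti-HA (expression) and streptavidin (reagent binding) fluorescence set low and high (top ~1%) gates. Polyreactivity labels come from the gate of origin. Genes were colony-PCR amplified, MiSeq 2 × 250 sequenced and filtered by CDR length.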

Row | Sequence | polyreactivity (PSR sort gate)
1 | QVQLVESGGGLVQAGGSLRLSCAASGRIFSRYAMGWYRQAPGKERELVAAINKSGGSTYYADSVKGRFTISRDNAKNTVYLQMNSLKPEDTAVYYCAAALGRRRTGYDYWGQGTQGTVSS | high polyreactivity
2 | QLQLVESGGGLVQAGGSLRLSCAASGLIFPFYAMGWYRQAPGKERELVAAITSSGNTYYADSVKGLFTISRDNAKNTVYLQMNSLKPEDTAVYYCAADGSRIVKFDYWGQGTQVTVSS | high polyreactivity
3 | QVQLVESGGGLVQAGGSLRLSCAASGMIFYTYVMGWYRQAPGKEREFVAGISTSGGRTDYADSVKGRFTISRDNAKNTVYLQMNSLKPEDTAVYYCNADYWQWYSYWYDYWGQGTQVTVSS | high polyreactivity
4 | QVQLEESGGGLVQAGGSLRLSCAASGRIFYEYAMGWYRQAPGKERELVADISSGDDTYYADSVKGRFTISRDNAKNTVYLQMNSLKPEDTAVYYCAADDGGSGFIYDYWGQGTQVTVSS | low polyreactivity
5 | QVQLVESGGGLVQAGGSLRLSCAASGRIFLFYAMGGYRQAPGKERELVAAISSTDDTYYADSVKGRFTISRDNAKNTVYLQMNSLKPEDTAVYYCAAYSIISQSEMYYWGQGTQVTVSS | low polyreactivity
6 | QVQLVESGGGLVQAGGSLRLSCAASGSIFDGYAMGWYRQAPGKEREFVAAITKRTGRTYYADSVKGRFTISRDNAKNTVYLQMNSLKPEDTAVYYCAAAIPRFSAGHYDYCGQGTQVTVSS | high polyreactivity
7 | QVQLVESGGGLVQAGGSLRLSCAASGFIVTPYTMGWYRQAAGKERELVAAITDGSSTYYADSVKGRFTISRDNAKNTDYLQMNSLKPEETAVYYFNADGKPPYISWLYDYWGHGTQVTVSS | low polyreactivity
8 | QVQLVESGGGLVQAGGSLRLSCAASGSTSTGNAMGWYRKAPGKERELVAAITSGGNTYYADSVKGRFTISRDNAKNTVYLQMNSLKPEDTAVYYCAAASPGPWRYDYWGQGTQVTVSS | high polyreactivity
9 | QVQLVESGGGLVQAGGSLRLSCAASGLTFYNARGWYRQAPGKERELVAAISGTVSRTYYADSVKGRFTISRDNAKNTVYLEMNSLKPEDTAVYYCAVRWYGKYSGVRYYYWGQGTQVNVSS | high polyreactivity
10 | QVQLVESGGGLVQAGGSLRLSCAASGSILGSNAMGWYRQAPGKERELVAAITSSGGSTYYADSVKGRFTISRDNAKNTVYLQMNSLKPEDTAVYYCAARTNYDSTRGEYDYWGQGTQVTVSS | low polyreactivity
11 | QVQLVESGAGLVQAGGSLRLSCAPSGSILVNPIGWYRQAPGKEREFVAAISSGGSTKYADSVKGRFTISRDNAKNTVYLQMNSLKPEATAVYYCNARRRGAGGYDYWGQVTQVTVSS | high polyreactivity
12 | QVQLVESGGGLVHAGGSLRLSCAASGSTFKIYAMGLYRQAPGKERELVASIRGRGGSTYYADSVKGRFTISRDNAKNTVYLQMNSLKPEDTAVYYCNATYGHRYPACISYDYWGQGTQGTVSS | high polyreactivity
13 | QVQLVESGGGLVQAGGRLRLSCAPSGRTFKYYAMGGYREAPGKERELVASISSGGNTNYADSVKGRFTISRDNATNSVYFQMNSLKPEDTAVYYCAASTWQNRRSYYWGQGTQVTVSS | high polyreactivity
14 | QVQLVESGGGLVQAGGSLRLSCAASGRIFPYYAMGWSRQAPGKVRELVAAISVSDVRTYYPDSVKGRFTISRDNAKNTVYLQMNSLKPEDTAVYYCAAYWYRSPQSGLDYWGQGTQVTVSS | low polyreactivity
15 | QVQLVESGGGLVQAGGSLRLSCAASGFIFQSYAMGWYRQAPGKERELVASITRSGGSTYYADSVKGRFTISRDNAKNTVYLQMNSLKPEDTAVYYCNTYRNHYGWRKFNYWGQGTQVTVSS | high polyreactivity
16 | QVQLVESVGGLDQAGGSLRLSCAASGYTFSLNAMGWYRQAPGKEREFVATIRSSGARTSYADSVKGRFTISRDNAKNTVYLQMNSLKPEDTAVYYCAARYYNSYRYAMGYWGQGTQVTVSS | high polyreactivity
17 | QVQLVESGGGLVQAGVSLRLSCAASGRTSAYSAMGWYRQAPGKERQLVAGITRGGRTNYADSVKGRFTISRDNAKNTVYLQMHSLKPEDTAVYYCAAKYGYYWNSRTSGYWGQGTQVTVSS | high polyreactivity
18 | QVQLVESGGGLVQAGGSLRLSCAASGSNIYHNTMGWYRQAPGKERELITYYADSVKGRFTISRDNAKNTVYLQMNSLKPEDTAVYYCAASPVSRTGPGDYDYWGQGTQVTVSS | low polyreactivity
19 | QVQLVESGGGLVQAGGSLRLSCASSGLIFAYYGMVWYRQAPGKEREFVAAISWRGGSTYYADSVKGRFTISRDNAKNTVYLQMNSLKPEDTAVYYCAARPLYGSARTNYGYWGQGTQVSVSS | high polyreactivity
20 | QVQLVESGGGLVQAGGSLRLSCAASGSTFYIYAMGWYRQAPGKERELVARITRGGTTYADSVKGRFTISRDNAKNTVYLQMNSLKLEDTAVYYCNAASKTTRYYQAFYSGGGYWGQGTQVTVSS | high polyreactivity
21 | QVQLVESGGGLVQAGGSLRLSCAASGITFGSYAMGWYRQAPGKERELVAAISRSGGSTYYADSVKGRFTISRDNAKNTVYLQMNSLKPEDTAVYYCAVRYVYYREGDYWGQGTQVSVSS | high polyreactivity
22 | QVQHVESVGGLVQAGGSLRLSCAASGRIFNYNSMGWYRLAPVKERELVAVITSVDSTNYADSVKGRFTISRDNAKNTVYLQMNSLKQEDTAVYYCASEYYSIRYGPHSIEVYCMEYWGQGTQVTVSS | low polyreactivity

Row | Sequence | polyreactivity (PSR sort gate)
23 | QVQLVESGGGLVQAGGSLRLSCAASGSTFKPYPMGWYRQAPGKERELVADITGGGSTNYADSVKGRFTNSRDNAKNTVYLEMNSLKPEDTGVYYCNATYLLKYRYYDSTRYDYWGQGTQVTVSS | low polyreactivity
24 | QVQRVESGGGLVQAGGSLRLSCAASGRIFVRNVMGWYRQAPGKEREFVAAITTRGGSTYYADSVKGRFTISRDNAKNTVYLQMNSLKPEDTAVYYCAARYTLRLYWGQGTQVTVSS | high polyreactivity
25 | QVQLVESGGGLVQAGGSLRLSCAASGSTFVYYDMGGYRPAPGKERELVADISDSGGSTNYADSVKGRFTISRDNAKNTVYLHMNSLKPEDTAVYYCAADSADPTEYDYWGQGTQVTVSS | low polyreactivity
26 | QVQLVESGGGLVQAGGSLRLSCAASGIFGYNAMGWYIQAPGKERELVAAITSSGTSTYYADSVKGRFTISRDNAKNTVYLQMNSLKPEDTAVYYCAALHSGTWTGYGYWGQGTQVTVSS | low polyreactivity
27 | QVQLVESGGGLVQAGGSLRLSCAASGLTYNRYTMGWYRQAPGKERELVAAITSSGSTYYADSVKGRFTISRDNAKYTVYLQMNSLKPEDTAVYYCNTVYYDWFHYDYWGQGTQVTVSS | high polyreactivity
28 | QGQLGESGGGLVQAGGSLRLSCAASGSIFPEYDMGWYRQAPGNERELDAAISWSGGSTYYADSVKGRFTISRANAKNTVSLQRNSLKPVDTAVYYCNRVPSWRIDYDYWGQGTQVSVSS | low polyreactivity
29 | QVQLVESGGGLVQAGGSLRLSCAASGRIFPTNAMGWYRQAPGKERELVASITRSGSTYYADSVKGRFTISRDNAKNTVYLQMNSLKPEDTAVYYCAKRYRYSVGWPVKNSAFGYWGQGTQVTVSS | low polyreactivity
30 | QVQLVESGGGLVQAGGSLRLSCAASGRTFYQNVMGWYRPAPGKERELVAAISQRGGRTYYADSVKGRFTISRDNAKNTVYLQMNSLKPEDTAVYYCNADSTVWPYDYWGQGTQVTVSS | low polyreactivity
31 | QVQLVESGGGLVQAGGSLRLSCAASGFIFVDYAMGWYRQAPGKERELVAAISSSGSTTYADSVKGRFTISRDNAKNIVYLKMNSLKPEDTAVYYCAAGLPRVLKDATFDYWGQGTQVTVSS | low polyreactivity
32 | QVQLEESGGGLVQAGGSLRLSCAASGSICYYYARGWYRQAPGKERELVASITSGGRTYYADSVKGRFTISRDNAKNTVYLQMNSLKPEDTAVYYCAAQRIWLGDYWGQGTQVTVSS | high polyreactivity
33 | QVQLVESGGGLVQAGGSLRLSCAPSGYTFIFNVMGWYRQAPGKERELVAAISYSGGSTNYADSVKGRYTTSRDNAKNTVYFQMNSLKPEDTAVYYCNARTVSRNGYQDDYWGQGTQVTVSS | low polyreactivity
34 | QVQLVESGGGLVQAGGSLRLSCAASGRIFIYYAMGWYRQAPGKERELVAAITRGGNTNYADSVKGRFTISRDNAKNTVYLQMNSLKPEDTAVYYCAAAIRYGSRHRGYWGQGTQVTVSS | low polyreactivity
35 | QVQLVESGGGLVQAGGSLRLSCAASGSTFGYNAMGWYRQAPGKERELVAGIRSSGGSTYYADSVKGRFTISRDNAKNTVYLQMNSLKTEDTAVSYCNTRRRRNEKMYYWGQGTQVTVSS | high polyreactivity
36 | QVQLVESGGGLVQAGGSLRLSCAASGRIFYSYAMGWYRQAPGKDRELVAAITRTGGNTYYADSVKGRFTISRDNAKNTVYLQMNSLKPEDTAVYYCNAEYWKEHYPEIYYSWGQGTQVTVSS | low polyreactivity
37 | QVQLVESGGGLVPARGSLRLSCAASGIILRGYAMGWYRQSPGKERELVAAITYRGSSTYYADSVKGSFTISRDNAKNTVYLQMNSLKPEDTAVYYCGADRWLYAVITAGGGYWGQGTQVTVSS | high polyreactivity
38 | QVQLVESGGGLVQAGGSLRLSCAASGSIFQFYAMGWYRQAPGKERELVAVITTSGVSTYYADSVKGRFTISRDNAKNTVYLQMNSLKPEDTAVYYCAADDYYLAGDYWGQGTQVTVSS | low polyreactivity
39 | QVQLVESGGGLVQAGGSLRLSCAASGSTFARYVMGWYRQAPGKDRELVAAIRSTGGRTYYADSVKGRFTISRDNAKNTVYLQMNSLKPEDTAVYYCAAAFGQYSRKRFDYWGQGTQVTVSS | high polyreactivity
40 | PVQLVDSGGGLVQAGGSLRLSCAASGSTFQRNVMGWYRQAPGKERELVAAITWRGTSTYYADSVKGRFTISRDNAKNTVYLQMNSLKPEDTAVYYCAAERTRSGYYYDYWGQGTQVTVSS | high polyreactivity
41 | QVQLEESGGGLVQAGGSLRLSCAASGILRDNAMGWYRQAPGKERELVATINGDGSTYADSVKGRFTISRDNAKNTVYLQMNSLKPEDTAVYYCAAPFTTTFDYWGQGTQVTVSS | low polyreactivity
42 | QVQLGESGGGLVLAGGSLRLSCAASGSIFTHYAIGWYRQAPGKERELVAAISWSGGSTYYADSVKGRFTISRDNAQNTVYLQMNSLKPEDTAVYYCAALYYSRLSVSGEYDYWGQGTQVTVSS | high polyreactivity
43 | QVQLVESGGGLVQAGGSLRLSCAASGSTLRYYGMGWYRQAPGKEREFVATLSWGGGSTYYADSVKGRFTISRDNAKNTVYLQINSLKPEDTAVYYCAASWNGGLFQTKYGYWGQGTQVTVSS | high polyreactivity
